Measured values: patent publication US5770191, “Active C-terminal peptides of interferon--gamma and their use” (University of Florida, dated 1998)

T1: murine IFNγ receptor (murine, UniProt P15261)
T1 sequence: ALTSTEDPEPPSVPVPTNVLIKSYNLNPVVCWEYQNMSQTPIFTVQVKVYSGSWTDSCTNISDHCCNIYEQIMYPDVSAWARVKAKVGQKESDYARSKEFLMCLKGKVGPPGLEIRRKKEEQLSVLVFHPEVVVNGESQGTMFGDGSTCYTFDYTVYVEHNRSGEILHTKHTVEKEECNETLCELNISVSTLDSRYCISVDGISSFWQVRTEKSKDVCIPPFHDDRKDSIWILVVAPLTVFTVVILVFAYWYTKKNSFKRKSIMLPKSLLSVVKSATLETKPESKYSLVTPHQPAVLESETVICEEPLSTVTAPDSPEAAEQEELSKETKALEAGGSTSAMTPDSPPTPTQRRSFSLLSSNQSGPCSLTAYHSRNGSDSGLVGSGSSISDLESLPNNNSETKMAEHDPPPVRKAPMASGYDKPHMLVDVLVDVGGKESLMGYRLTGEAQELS

B1: huIFNγ (95-134) (peptide)
peptide: LTNYSVTDLNVQRKAIHELIQVMAELSPAAKTGKRKRSQM
B2: muIFNγ (95-133) (peptide)
peptide: AKFEVNNPQVQRQAFNELIRVVHQLLPESSLRKRKRSRC

Target: T1, murine IFNγ receptor
Test: cell-based or functional assay

Binder	Ia (MHC class II) expression on P388D1 cells by FACS, peptide at 100 µM, 24 hours [fold]
B1	10
B2	10
